Drawing on the Human Domainome abundance scans (Beltran et al. 2025), this text covers abundance fitness for 48 variants.

± gives the uncertainty stated by the source.

The labels stand for the following.
B1: POU domain, class 6, transcription factor 2, residues 609 to 663; numbered along this chain, P78424 (parent)
chain: KRRTSFTPQALEILNAHFEKNTHPSGQEMTEIAEKLNYDREVVRVWFCNKRQALK

The data set covers variants of B1. As to the kind of experiment: abundance fitness (aPCA) (normalised: wild type 0, dead -1); higher = more abundant; growth selection in yeast, the domain comes from the species named. The conditions noted are these: Homo sapiens.
With KRRTSQTPQALEILNAHFEKNTHPSGQEMTEIAEKLNYDREVVRVWFCNKRQALK [F6Q], the abundance fitness is -0.28 ± 0.14.

As to KRRTSWTPQALEILNAHFEKNTHPSGQEMTEIAEKLNYDREVVRVWFCNKRQALK [F6W], the abundance fitness is -0.025 ± 0.098.

Regarding KRRTSMTPQALEILNAHFEKNTHPSGQEMTEIAEKLNYDREVVRVWFCNKRQALK [F6M], the abundance fitness was -0.042 ± 0.12.

Consider KRRTSGTPQALEILNAHFEKNTHPSGQEMTEIAEKLNYDREVVRVWFCNKRQALK [F6G], for which the abundance fitness is -0.326 ± 0.067.

Regarding KRRTSRTPQALEILNAHFEKNTHPSGQEMTEIAEKLNYDREVVRVWFCNKRQALK [F6R], the abundance fitness is -0.423 ± 0.076.

For the variant KRRTSNTPQALEILNAHFEKNTHPSGQEMTEIAEKLNYDREVVRVWFCNKRQALK [F6N], the abundance fitness is -0.267 ± 0.19.

As for KRRESFTPQALEILNAHFEKNTHPSGQEMTEIAEKLNYDREVVRVWFCNKRQALK [T4E], the abundance fitness was 0.045 ± 0.11.

In the case of KRRQSFTPQALEILNAHFEKNTHPSGQEMTEIAEKLNYDREVVRVWFCNKRQALK [T4Q], the abundance fitness was -0.203 ± 0.13.

Regarding KRRGSFTPQALEILNAHFEKNTHPSGQEMTEIAEKLNYDREVVRVWFCNKRQALK [T4G], the abundance fitness is -0.089 ± 0.081.

For KRRFSFTPQALEILNAHFEKNTHPSGQEMTEIAEKLNYDREVVRVWFCNKRQALK [T4F], the abundance fitness is -0.333 ± 0.14.

For the variant KRRASFTPQALEILNAHFEKNTHPSGQEMTEIAEKLNYDREVVRVWFCNKRQALK [T4A], the abundance fitness was -0.09 ± 0.079.

With KRRKSFTPQALEILNAHFEKNTHPSGQEMTEIAEKLNYDREVVRVWFCNKRQALK [T4K], the abundance fitness was -0.123 ± 0.15.

Take KRRYSFTPQALEILNAHFEKNTHPSGQEMTEIAEKLNYDREVVRVWFCNKRQALK [T4Y]: the abundance fitness was -0.15 ± 0.18.

With KRRHSFTPQALEILNAHFEKNTHPSGQEMTEIAEKLNYDREVVRVWFCNKRQALK [T4H], the abundance fitness was -0.028 ± 0.26.

On to KRRSSFTPQALEILNAHFEKNTHPSGQEMTEIAEKLNYDREVVRVWFCNKRQALK [T4S], for which the abundance fitness was -0.001 ± 0.093.

For KRRRSFTPQALEILNAHFEKNTHPSGQEMTEIAEKLNYDREVVRVWFCNKRQALK [T4R], the abundance fitness is -0.204 ± 0.071.

For KRRISFTPQALEILNAHFEKNTHPSGQEMTEIAEKLNYDREVVRVWFCNKRQALK [T4I], the abundance fitness is -0.364 ± 0.22.

Regarding KRRLSFTPQALEILNAHFEKNTHPSGQEMTEIAEKLNYDREVVRVWFCNKRQALK [T4L], the abundance fitness is -0.063 ± 0.079.

Take KRRCSFTPQALEILNAHFEKNTHPSGQEMTEIAEKLNYDREVVRVWFCNKRQALK [T4C]: the abundance fitness is -0.058 ± 0.17.

On to KRRDSFTPQALEILNAHFEKNTHPSGQEMTEIAEKLNYDREVVRVWFCNKRQALK [T4D], for which the abundance fitness is -0.083 ± 0.16.

In the case of KRRMSFTPQALEILNAHFEKNTHPSGQEMTEIAEKLNYDREVVRVWFCNKRQALK [T4M], the abundance fitness was -0.148 ± 0.16.

Turning to KRRVSFTPQALEILNAHFEKNTHPSGQEMTEIAEKLNYDREVVRVWFCNKRQALK [T4V], the abundance fitness was -0.106 ± 0.079.

For KRRTSFTIQALEILNAHFEKNTHPSGQEMTEIAEKLNYDREVVRVWFCNKRQALK [P8I], the abundance fitness is -0.189 ± 0.24.

Take KRRTSFTVQALEILNAHFEKNTHPSGQEMTEIAEKLNYDREVVRVWFCNKRQALK [P8V]: the abundance fitness was 0.004 ± 0.11.

Turning to KRRTSFTHQALEILNAHFEKNTHPSGQEMTEIAEKLNYDREVVRVWFCNKRQALK [P8H], the abundance fitness was -0.177 ± 0.33.

On to KRRTSFTFQALEILNAHFEKNTHPSGQEMTEIAEKLNYDREVVRVWFCNKRQALK [P8F], for which the abundance fitness was -0.147 ± 0.21.

With KRRTSFTYQALEILNAHFEKNTHPSGQEMTEIAEKLNYDREVVRVWFCNKRQALK [P8Y], the abundance fitness was -0.572 ± 0.28.

For the variant KRRTSFTTQALEILNAHFEKNTHPSGQEMTEIAEKLNYDREVVRVWFCNKRQALK [P8T], the abundance fitness stood at 0.477 ± 0.48.

For KRRTSFTLQALEILNAHFEKNTHPSGQEMTEIAEKLNYDREVVRVWFCNKRQALK [P8L], the abundance fitness was -0.057 ± 0.11.

Turning to KRRTSFTRQALEILNAHFEKNTHPSGQEMTEIAEKLNYDREVVRVWFCNKRQALK [P8R], the abundance fitness was -0.148 ± 0.1.

Regarding KRRTSFTNQALEILNAHFEKNTHPSGQEMTEIAEKLNYDREVVRVWFCNKRQALK [P8N], the abundance fitness is -0.072 ± 0.29.

KRRTSFTAQALEILNAHFEKNTHPSGQEMTEIAEKLNYDREVVRVWFCNKRQALK [P8A]: the abundance fitness was determined as 0.022 ± 0.12.

As for KRRTSFTMQALEILNAHFEKNTHPSGQEMTEIAEKLNYDREVVRVWFCNKRQALK [P8M], the abundance fitness was 0.037 ± 0.17.

Take KRRTSFTKQALEILNAHFEKNTHPSGQEMTEIAEKLNYDREVVRVWFCNKRQALK [P8K]: the abundance fitness is -0.138 ± 0.2.

As to KRRTSFTQQALEILNAHFEKNTHPSGQEMTEIAEKLNYDREVVRVWFCNKRQALK [P8Q], the abundance fitness was -0.365 ± 0.17.

Consider KRRTSFTCQALEILNAHFEKNTHPSGQEMTEIAEKLNYDREVVRVWFCNKRQALK [P8C], for which the abundance fitness was -0.023 ± 0.14.

Turning to KRRTSFTWQALEILNAHFEKNTHPSGQEMTEIAEKLNYDREVVRVWFCNKRQALK [P8W], the abundance fitness was -0.394 ± 0.13.

With KRRTSFTSQALEILNAHFEKNTHPSGQEMTEIAEKLNYDREVVRVWFCNKRQALK [P8S], the abundance fitness was 0.05 ± 0.13.

For the variant KRRTSFTDQALEILNAHFEKNTHPSGQEMTEIAEKLNYDREVVRVWFCNKRQALK [P8D], the abundance fitness amounted to 0.038 ± 0.14.

Consider KRNTSFTPQALEILNAHFEKNTHPSGQEMTEIAEKLNYDREVVRVWFCNKRQALK [R3N], for which the abundance fitness came to 0.208 ± 0.17.

In the case of KRMTSFTPQALEILNAHFEKNTHPSGQEMTEIAEKLNYDREVVRVWFCNKRQALK [R3M], the abundance fitness was determined as 0.01 ± 0.1.

Take KRWTSFTPQALEILNAHFEKNTHPSGQEMTEIAEKLNYDREVVRVWFCNKRQALK [R3W]: the abundance fitness is -0.265 ± 0.088.

As to KRPTSFTPQALEILNAHFEKNTHPSGQEMTEIAEKLNYDREVVRVWFCNKRQALK [R3P], the abundance fitness worked out at 0.004 ± 0.1.

With KRSTSFTPQALEILNAHFEKNTHPSGQEMTEIAEKLNYDREVVRVWFCNKRQALK [R3S], the abundance fitness is 0.02 ± 0.078.

On to KRLTSFTPQALEILNAHFEKNTHPSGQEMTEIAEKLNYDREVVRVWFCNKRQALK [R3L], for which the abundance fitness amounted to 0.057 ± 0.073.

With KRTTSFTPQALEILNAHFEKNTHPSGQEMTEIAEKLNYDREVVRVWFCNKRQALK [R3T], the abundance fitness is -0.134 ± 0.11.

Turning to KRQTSFTPQALEILNAHFEKNTHPSGQEMTEIAEKLNYDREVVRVWFCNKRQALK [R3Q], the abundance fitness is -0.073 ± 0.17.

For KRVTSFTPQALEILNAHFEKNTHPSGQEMTEIAEKLNYDREVVRVWFCNKRQALK [R3V], the abundance fitness is -0.001 ± 0.071.
